Test results published in article PMC13031426.

Target: Complex III (cytochrome bc1 complex) dimer of the ΔQCR6 yeast supercomplex (Saccharomyces cerevisiae) (UniProt P07143)
Test: cryo-EM structure

stoichiometry N: 2
Substance: Complex III (cytochrome bc1 complex) dimer of the ΔQCR6 yeast supercomplex (from UniProt P07143 62-309)
